Laboratory results reported in the supplement of paper PMC9170038.

System: MS2 coat protein
Assay: apparent KD of MS2 coat protein; designed switch direction (-1 OFF switch, 1 ON switch): 1; higher = weaker reporter binding
Summary of the method: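 On Illumina chips, designed RNA switches with common flanks were made by stalled E. coli RNA polymerase. Titrations with SNAP-549-labelled MS2 coat protein, doubling from 0.7 or 1.5 nM to 3 µM, were done with no input, with 200 uM small-molecule ligand, or with an oligonucleotide input. Apparent KD is the median per design over clusters, from curve fits of normalised cluster fluorescence.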

[1] = Eterna round: R95, input ligand: FMN 200 uM
[2] = Eterna round: R95, input ligand: microRNA oligo, concentration not stated
[3] = Eterna round: R95, input ligand: none
[4] = input ligand: microRNA oligo, concentration not stated

Sequence | apparent KD of MS2 coat protein [1] [nM] | apparent KD of MS2 coat protein [2] [nM] | apparent KD of MS2 coat protein [3] [nM] | apparent KD of MS2 coat protein [4] [nM] | apparent KD of MS2 coat protein (input ligand: FMN 200 uM) [nM] | apparent KD of MS2 coat protein (input ligand: none) [nM]
GUAGCAUGCACCGAGGAUAUUCAUAUUAAAACAUGAGGAUCACCCAUGUAGGCCAAAAGGCCUUGGGAGAAGGCGGACAUGCUAC [Xeonanis - 21] (puzzle: Same State 2) | 23.5 | 178 | 422 | – | – | –
AAAGAACAUGAGGAUCACCCAUGUGGAAGAGGCACAGGAUAUCACCUCGCAAGUACGAGGUGAGAAGGGUGAUGAU [Araa] (puzzle: Same State 1) | 183 | 154 | 426 | – | – | –
UUUAGUUGCGGGCAGGAUAUGUAUUAAAAUACAUGAGGAUCACCCAUGUGUGGGUAUAACACCCAACAGAAGGGCCAAUCGCGAC [Laonerce - 12] (Eterna round: R96, puzzle: Same State 2) | – | – | – | 94.4 | – | –
GGUAAACAUGAGGAUCACCCAUGUAAUAAUAUGGGAGGAUAUGGGAAUUAAUUAAUUAAACCAGAAGGCCUAAUUG [Mat - Same State 1 - D85] (puzzle: Same State 1) | – | 167 | – | – | – | –
CGGCGCUGUCGAGAGGAUAUGCGGUGAUGGACAUGAGGAUCACCCAUGUUAGCGAUAGCAUCACGGUAGAAGGCUCUACGGCUUG [Soteed Omei mod 21] (puzzle: Same State 2) | – | 31 | – | – | – | –
GGGCCAGCCUGUGCUGGGCCUUCGCAUGCACAUGAGGAUCACCCAUGUCGUGUACAUGCUUUUUGCUCGUCUUUAAA [Photon Torp-10] (puzzle: Sensor for hsa-mir-208a) | 40.9 | 12.6 | 42.7 | – | – | –
GUAUAACAUGAGGAUCACCCAUGUCAACAAAGUCGAGGAUAUGGGCAAUUAUAAUUAGAACCAGAAGGCGAAUAGU [Mat - Same State 1 - Mod of UCT - D43] (puzzle: Same State 1) | 30.8 | 287 | 251 | – | – | –
CAGCACUGUCGAGAGGAUAUGCGGUGAUAGACAUGAGGAUCACCCAUGUUAGCGACAGCAUCACGGCAGAAGGCUCUGCUGCUGC [Soteed Omei mod 40] (puzzle: Same State 2) | 43.5 | 130 | 349 | – | – | –
AGUCCAGCCUGAGCUGGACAAAAGCAUGUACAUGAGGAUCACCCAUGUUCAUGUACAAGCUUUUUGCUCGUCUUAGA [salish99_208a_r3_059] (puzzle: Sensor for hsa-mir-208a) | 709 | 15.4 | 732 | – | – | –
UUUACAUUACGAGGAUAUCAAUUAUUUCAUGUUUGAGAAGGCGUUUUUUUUAUUACCUUACAUGAGGAUCACCCAUGUUUCAUU [JR_SSNG1_Sub042] (Eterna round: R96, puzzle: Same State NG 1) | – | – | – | 18.4 | 19.4 | 25.5
UGGCAACAUGAGGAUCACCCAUGUCAAACUAAUCGAGGAUAUGGGAACUAACAACACAAACUAGAAGGCGAACUUG [Altered State 1-10 - Jieux - Same State 1] (puzzle: Same State 1) | 74.9 | 32 | 38.3 | – | – | –
AGCUUUUAAUUAGGAUAUGGUCACAUGAGGAUCACCCAUGUAACGAUGAUACGAUGUGGUCAAGACUAGAAGGGAUCGCUAACA [SameState NG2 #70] (Eterna round: R96, puzzle: Same State NG 2) | – | – | – | 82.9 | 150 | 113
GCUCGUAUCACAGCCAACAUGAGGAUCACCCAUGUAUGUUGGUAGGAUAUCUAUAUUAAGGAUAUAGAGAAGGGCCGAACGAGC [SameState NG3 #11] (Eterna round: R96, puzzle: Same State NG 3) | – | – | – | 126 | 121 | 145
GCUGCAAUUAACGCCUACAUGAGGAUCACCCAUGUAUGUAGGCAGGAUAUCGUUUGCAAAGCAAACGAGAAGGGCCGUAGUAGC [Mat - Same State NG 3 - JL Mod - D34] (Eterna round: R96, puzzle: Same State NG 3) | – | – | – | 48.9 | 28.9 | 73.8
GUGGUCAGACAUGAGGAUCACCCAUGUGGAAUAAAUAAGGAACAGGAUAUGGAAUAUAGGAUAUACCAGAAGGGUUGGUUGGUG (Eterna round: R96, puzzle: Same State NG 3) | – | – | – | 62.3 | – | –
ACAUGAACAUGAGGAUCACCCAUGUUUAGGAUCACCCAUGCUCAGGAUAUAGCAUGAGGACAUGACUAGAAGGGAGGUGCUGAG [Same State NG3 S2] (Eterna round: R96, puzzle: Same State NG 3) | – | – | – | 27 | 41 | 36.1

Sequence | apparent KD of MS2 coat protein [1] [nM] | apparent KD of MS2 coat protein [2] [nM] | apparent KD of MS2 coat protein [3] [nM] | apparent KD of MS2 coat protein [4] [nM] | apparent KD of MS2 coat protein (input ligand: FMN 200 uM) [nM] | apparent KD of MS2 coat protein (input ligand: none) [nM]
GGUCGGUCCAAACAUGAGGAUCACCCAUGUCCGGAAACGGCAUAGGAUAUCUGUCCGAAAAGGUCAGAGAAGGGUGAACCGACC [Fiskers NG3ss - 71] (Eterna round: R96, puzzle: Same State NG 3) | – | – | – | 741 | 795 | 149
AGUCCAGCCUGAGCUGGACAAAAGCAUGUACAUGAGGAUCACCCAUGUCAUGUACAAGCUUAUUGCUCGUCUUAAUA [Mat - hsa-mir-208a - Mod of JL - D40] (puzzle: Sensor for hsa-mir-208a) | 226 | 16.7 | 251 | – | – | –
GGGAGAGACGCAGGAUAUGGUGAGGAUUACCCACUAGAAGGGUGGACAUGAGAAUCGAACAUGAGGAUCACCCAUGUUCUGAGG (Eterna round: R96, puzzle: Same State NG 1) | – | – | – | 44.3 | 64 | 66
AGCUAAAACGAAGGAUAUACUGACAUGAGGAUCACCCAUGUAUACAUGAUUUAUUGUGAUCACAUGUAGAAGGUCGUACUAACA [SameState NG2 #21] (Eterna round: R96, puzzle: Same State NG 2) | – | – | – | 269 | 310 | 413
UUAAGCAACGGGCAGGAUAUGUAUUAAAAUACAUGAGGAUCACCCAUGUGCAGGUGUAACACCUGACAGAAGGGCCAAUCGCUGC [Soteed - 7] (puzzle: Same State 2) | 63.8 | 531 | 900 | – | – | –
AAUCCUGUCACAGGAUAUCCGAGGUCAACCCUCGGAGAAGGGUGAUAGUCUAACAAACACACACAUGAGGAUCACCCAUGUUAA [Bigeceaor] (Eterna round: R96, puzzle: Same State NG 1) | – | – | – | 61.6 | 43.1 | 79.2
GUUACAUGAGGAUCACCCAUGUAUGUGUGGGAGUAAGUGUCUUAGGAUAUCUGUAAUUUAAUUUAAGAGAAGGAAGAUUGUUGU [JMF's solution 31] (Eterna round: R96, puzzle: Same State NG 3) | – | – | – | 94.5 | 128 | 121
GCGAGCGUACUUGCAACAUGAGGAUCACCCAUGUUAACUGGACAGGAUAUGGUACCGUUUCGGUACCAGAAGGGUUUUACAUGU [JL SSNG3 3.65] (Eterna round: R96, puzzle: Same State NG 3) | – | – | – | 29.1 | 35.1 | 35.6
GUUAUUAAUGCAGGAUAUGAUUAACAUGAGGAUCACCCAUGUGGUGUUGUGAGUAAGGAGAGUGAUCAGAAGGGCAUUUUUUUU [JMF's solution 40] (Eterna round: R96, puzzle: Same State NG 2) | – | – | – | 815 | 890 | 764
ACAUGAAAGUUAGGAUAUUUUGUACCUACAUGUGACAUGAGGAUCACCCAUGUGGUAAGUAUAAGAGAGAAGGAGCAGAUAUGU [Equivalence 1 - Jieux - Same State NG 2] (Eterna round: R96, puzzle: Same State NG 2) | – | – | – | 48.1 | 45.1 | 52.8
AAACGUCACAUGAGGAUCACCCAUGUAGCCAUAAGAAGCGGACAGGAUAUUGACCUGAACGGAGUCAAGAAGGGUCAGUAUCAG [Eternabot solution 1] (Eterna round: R96, puzzle: Same State NG 3) | – | – | – | 12.9 | 14.7 | 18.2
GCACAUGAGGAUCACCCAUGUGCGCUUGGUUGUCCAAGCGCACAGGAUAUACCUCCAAAUGGGAGGUAGAAGGGUGAAAAGAAG [Leones] (Eterna round: R96, puzzle: Same State NG 3) | – | – | – | 11.1 | 15.1 | 11
AUCCGGAGAAAACAAAUCCGACAUGAGGAUCACCCAUGUACACAGGAUAUCAGCCCGUUGAGGGCUGAGAAGGGUGGCCGAGUG [Cexeati] (Eterna round: R96, puzzle: Same State NG 3) | – | – | – | 72.7 | 267 | 130
GCUACCAAUGAAGCCAACAUGAGGAUCACCCAUGUAUGUUGGUAGGAUAUCGAUUGCAAAGCGAUCGAGAAGGGCUAAGGUAGC [Mat - Same State NG 3 - JL Mod - D82] (Eterna round: R96, puzzle: Same State NG 3) | – | – | – | 59.6 | 51.9 | 54.5
GGAAUAUGAUGUUACAUGAGGAUCACCCAUGUAGUAAUAACUAAGGAUAUCUGUUAAGAUAACUAAGAGAAGGUAGGAUCAUAA [AK SSNG3-V2-8.4] (Eterna round: R96, puzzle: Same State NG 3) | – | – | – | 20.5 | 22.2 | 22.1
